B2: recombinant his6-tagged murine IL-1RAcP (receptor, UniProt Q61730 21-367, looked up)
chain: SERCDDWGLDTMRQIQVFEDEPARIKCPLFEHFLKYNYSTAHSSGLTLIWYWTRQDRDLEEPINFRLPENRISKEKDVLWFRPTLLNDTGNYTCMLRNTTYCSKVAFPLEVVQKDSCFNSAMRFPVHKMYIEHGIHKITCPNVDGYFPSSVKPSVTWYKGCTEIVDFHNVLPEGMNLSFFIPLVSNNGNYTCVVTYPENGRLFHLTRTVTVKVVGSPKDALPPQIYSPNDRVVYEKEPGEELVIPCKVYFSFIMDSHNEVWWTIDGKKPDDVTVDITINESVSYSSTEDETRTQILSIKKVTPEDLRRNYVCHARNTKGEAEQAAKVKQKVIPPRYTVELACGFGAT
notes: Described only as soluble, recombinant and his6-tagged; also called soluble his6-tagged murine IL-1RAcP; his6-tagged IL-1RAcP; not shown: his6 tag

Legend:
[1] = molecular target: B2; experiment: not described (data not shown)
[2] = molecular target: T1, complex of plate-bound murine IL-1R1-Fc and murine IL-1β (murine, UniProt P13504 20-338; P10749 118-269, limits assumed); experiment: receptor-ligand complex ELISA: IL-1R1-Fc coated, his6-IL-1RAcP 3 ug/ml in solution, IL-1β titrated, anti-his6-peroxidase detection
T1 construct: Formed in the ELISA well from coated IL-1R1-Fc and titrated IL-1β; It is the partner that captures his6-IL-1RAcP; also called IL-1/IL-1R1 complex; not shown: Fc part of the bought fusion protein
T1 sequence (looked up) 1: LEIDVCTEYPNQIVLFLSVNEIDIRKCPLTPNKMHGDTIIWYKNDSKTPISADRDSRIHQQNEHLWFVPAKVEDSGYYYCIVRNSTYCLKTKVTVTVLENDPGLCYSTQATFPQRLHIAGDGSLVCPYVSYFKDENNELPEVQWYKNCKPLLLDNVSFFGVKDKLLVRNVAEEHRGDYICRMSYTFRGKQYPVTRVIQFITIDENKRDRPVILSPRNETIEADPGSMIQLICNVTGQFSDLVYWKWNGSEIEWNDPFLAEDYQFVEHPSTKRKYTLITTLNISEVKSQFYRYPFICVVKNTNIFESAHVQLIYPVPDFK
T1 sequence (looked up) 2: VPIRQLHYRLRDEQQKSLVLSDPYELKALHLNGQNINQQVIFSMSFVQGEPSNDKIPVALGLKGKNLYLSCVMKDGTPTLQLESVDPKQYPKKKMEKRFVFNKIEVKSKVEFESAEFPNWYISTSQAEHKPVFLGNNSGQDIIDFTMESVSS
Method: (§1) Murine IL-1β or IL-33 was titrated into plates containing soluble his6-tagged murine IL-1RAcP and plate-bound ST2-Fc (FIG. 8A) or IL-1R1-Fc (FIG. 8B). Peroxidase-conjugated anti-his6 was used as a detection antibody. Data is representative of 2 experiments. Data represent the mean+/-SEM of duplicate wells.
(§2) Receptor-ligand complex ELISA: 3 µg/mlmurine ST2-Fc or IL-1R1-Fc fusion proteins (R&D Systems) in PBS were coated overnight onto MaxiSorp plates (Nunc). After washing, plates were incubated with 3 µg/ml recombinant his6-tagged murine IL-1RAcP and increasing concentrations of murine IL-33 or IL-1β in PBS/1% bovine serum albumin/ 0.05% Tween-20® polyoxyethylene sorbitan monolaurate for 1.5 hours. Plates were washed and incubated with anti-his6-peroxidase (Roche Diagnostics) for 1 hour, washed again, developed with TMB Peroxidase substrate (KPL), stopped with […], and read on a plate reader at 450-570 nm.

[3] = molecular target: T2, murine IL-1R1-Fc fusion protein (R&D Systems) (murine, UniProt P13504 20-338, limits assumed); experiment: receptor-ligand complex ELISA: IL-1β titrated onto coated IL-1R1-Fc with his6-IL-1RAcP present; the readout is captured his6-IL-1RAcP (ternary complex)
T2 construct: Bought reagent (R&D Systems), coated on the plate at 3 ug/ml; not shown: Fc part of the bought fusion protein
T2 sequence (looked up): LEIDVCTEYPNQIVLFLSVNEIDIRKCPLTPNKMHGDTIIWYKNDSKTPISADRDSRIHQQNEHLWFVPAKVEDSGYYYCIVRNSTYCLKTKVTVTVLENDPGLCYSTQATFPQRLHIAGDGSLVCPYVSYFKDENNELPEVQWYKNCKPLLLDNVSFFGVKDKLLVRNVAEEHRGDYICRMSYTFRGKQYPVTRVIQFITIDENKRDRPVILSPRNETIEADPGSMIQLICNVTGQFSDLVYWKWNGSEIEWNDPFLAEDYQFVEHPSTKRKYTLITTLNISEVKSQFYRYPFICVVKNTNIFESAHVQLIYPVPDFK
Method: as §1, §2

B1: murine IL-33 (ligand, UniProt Q8BVZ5 109-266, looked up)
chain: SIQGTSLLTQSPASLSTYNDQSVSFVLENGCYVINVDDSGKDQEQDQVLLRYYESPCPASQSGDGVDGKKLMVNMSPIKDTDIWLHANDKDYSVELQRGDVSPPEQAFFVLHKKSSDFVSFECKNLPGTYIGVKDNQLALVEEKDESCNNIMFKLSKI
notes: also called mouse IL-33
binding result [1]: no binding

B2
binding result [2]: binds

B3: murine IL-1β (ligand, UniProt P10749 118-269, looked up)
chain: VPIRQLHYRLRDEQQKSLVLSDPYELKALHLNGQNINQQVIFSMSFVQGEPSNDKIPVALGLKGKNLYLSCVMKDGTPTLQLESVDPKQYPKKKMEKRFVFNKIEVKSKVEFESAEFPNWYISTSQAEHKPVFLGNNSGQDIIDFTMESVSS
notes: also called mouse IL-1β
binding result [3]: binds
